Reference: paper PMC6090299, “Quantitative Analysis of Interaction Between CADM1 and Its Binding Cell-Surface Proteins Using Surface Plasmon Resonance Imaging” (Frontiers in Cell and Developmental Biology, 2018)

T1: CADM2-Fc (human (by the printed RefSeq entry), UniProt Q8N3J6-1 25-367)
T1 construct: signal peptide in the construct; CADM2 extracellular domain, NP_001161146, 1-367 a.a; Human IgG2-Fc fragment from pFUSE-hIgG2-Fc1; source: FreeStyle 293-F cells, transiently transfected, purified from the supernatant (Protein G Sepharose); not shown: Fc (human IgG2), C-terminal, kept
T1 sequence (looked up): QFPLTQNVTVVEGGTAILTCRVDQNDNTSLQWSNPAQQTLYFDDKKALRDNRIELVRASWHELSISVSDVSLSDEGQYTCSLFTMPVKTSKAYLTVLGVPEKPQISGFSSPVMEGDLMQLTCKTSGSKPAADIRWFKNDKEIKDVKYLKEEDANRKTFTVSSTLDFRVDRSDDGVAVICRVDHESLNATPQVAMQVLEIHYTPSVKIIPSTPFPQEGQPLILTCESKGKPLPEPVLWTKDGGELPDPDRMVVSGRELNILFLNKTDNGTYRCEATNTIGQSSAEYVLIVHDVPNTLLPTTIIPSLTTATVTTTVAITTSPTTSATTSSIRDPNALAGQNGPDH

T2: CADM4-Fc (human (by the printed RefSeq entry))
T2 sequence (Q8NFZ8 whole entry, looked up): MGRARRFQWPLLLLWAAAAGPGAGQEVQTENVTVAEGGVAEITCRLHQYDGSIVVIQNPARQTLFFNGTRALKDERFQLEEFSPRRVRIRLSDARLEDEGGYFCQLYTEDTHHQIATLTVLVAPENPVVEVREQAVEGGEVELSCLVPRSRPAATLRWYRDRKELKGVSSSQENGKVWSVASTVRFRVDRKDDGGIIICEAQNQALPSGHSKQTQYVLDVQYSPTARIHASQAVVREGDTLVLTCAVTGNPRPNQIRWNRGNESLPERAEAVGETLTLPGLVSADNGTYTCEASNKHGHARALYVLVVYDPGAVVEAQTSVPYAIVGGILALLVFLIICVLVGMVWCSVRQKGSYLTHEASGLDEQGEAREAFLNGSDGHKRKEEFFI

B1: CADM1-Fc (Fc fusion, human (by the printed RefSeq entry), UniProt Q9BY67-1 45-374, looked up)
chain: QNLFTKDVTVIEGEVATISCQVNKSDDSVIQLLNPNRQTIYFRDFRPLKDSRFQLLNFSSSELKVSLTNVSISDEGRYFCQLYTDPPQESYTTITVLVPPRNLMIDIQKDTAVEGEEIEVNCTAMASKPATTIRWFKGNTELKGKSEVEEWSDMYTVTSQLMLKVHKEDDGVPVICQVEHPAVTGNLQTQRYLEVQYKPQVHIQMTYPLQGLTREGDALELTCEAIGKPQPVMVTWVRVDDEMPQHAVLSGPNLFINNLNKTDNGTYRCEASNIVGKAHSDYMLYVYDPPTTIPPPTTTTTTTTTTTTTILTIITDSRAGEEGSIRAVDH
notes: signal peptide in the construct; CADM1 extracellular domain, NP_055148, 1-374 a.a; Human IgG2-Fc fragment from pFUSE-hIgG2-Fc1; Glycosylated; also called cell adhesion molecule 1 extracellular domain fused with Fc; source: FreeStyle 293-F cells, transiently transfected, purified from the supernatant (Protein G Sepharose); not shown: Fc (human IgG2), C-terminal, kept

Key:
CADM2-Fc = target: T1, CADM2-Fc; test: SPR; SPR imaging (OpenPlex); the 10 IgSF-Fc proteins (7-24 μM) spotted in hexaplicate and immobilised by amine coupling; 2.4 μM CADM1-Fc injected for 4 min; 25°C; PBS with 0.2% BSA and 0.02% Tween20, 50 μL/min; signal of normal human IgG subtracted; conditions: both partners purified
[1] = target: the molecule itself; test: as above
[2] = target: T2, CADM4-Fc (human (by the printed RefSeq entry)); test: as above
[3] = target: the molecule itself; test: SPR; SPR imaging (OpenPlex); the 10 IgSF-Fc proteins spotted and immobilised by amine coupling; CADM2-Fc, CADM3-Fc or CADM4-Fc injected as analyte; 25°C; PBS with 0.2% BSA and 0.02% Tween20, 50 μL/min
CADM1-Fc = target: B1; test: SPR; SPR imaging (OpenPlex); the 10 IgSF-Fc proteins (7-24 μM) spotted in hexaplicate and immobilised by amine coupling; 2.4 μM CADM1-Fc injected for 4 min; 25°C; PBS with 0.2% BSA and 0.02% Tween20, 50 μL/min; signal of normal human IgG subtracted; conditions: both partners purified

Kd (CADM2-Fc) [nM]	koff (CADM2-Fc) [s⁻¹]	kon (CADM2-Fc) [M⁻¹ s⁻¹]	Kd [2] [nM]	koff [2] [s⁻¹]	kon [2] [M⁻¹ s⁻¹]	Kd (CADM1-Fc) [nM]	koff (CADM1-Fc) [s⁻¹]	kon (CADM1-Fc) [M⁻¹ s⁻¹]	Binder	Kd [1] [nM]	koff [1] [s⁻¹]	kon [1] [M⁻¹ s⁻¹]	binding result [3]
86.8	0.0064	74000	193	0.019	99000				B1	114	0.0073	64000	
						80.1	0.007	84000	CADM3-Fc (Fc fusion, human (by the printed RefSeq entry), UniProt Q8N126-1 25-330, looked up, signal peptide in the construct; CADM3 extracellular domain, NP_001120645, 1-330 a.a; Human IgG2-Fc fragment from pFUSE-hIgG2-Fc1; source: FreeStyle 293-F cells, transiently transfected, purified from the supernatant (Protein G Sepharose); not shown: Fc (human IgG2), C-terminal, kept) NLSQDDSQPWTSDETVVAGGTVVLKCQVKDHEDSSLQWSNPAQQTLYFGEKRALRDNRIQLVTSTPHELSISISNVALADEGEYTCSIFTMPVRTAKSLVTVLGIPQKPIITGYKSSLREKDTATLNCQSSGSKPAARLTWRKGDQELHGEPTRIQEDPNGKTFTVSSSVTFQVTREDDGASIVCSVNHESLKGADRSTSQRIEVLYTPTAMIRPDPPHPREGQKLLLHCEGRGNPVPQQYLWEKEGSVPPLKMTQESALIFPFLNKSDSGTYGCTATSNMGSYKAYYTLNVNDPSPVPSSSSTYH				binds
